This passage reports Kd results from PMC9579124, “IKKβ binds NLRP3 providing a shortcut to inflammasome activation for rapid immune responses” (Signal Transduction and Targeted Therapy, 2022).

This test concerns the target T1, MST-Red-NLRP3 (UniProt Q96P20 1-1036, MST-Red label (position not given)).
T1 construct: NLRP3 labelled with MST-Red for microscale thermophoresis
Nature of the test: MST; in solution; 50 nM MST-Red-NLRP3 titrated against increasing concentrations of IKKβ; two independent titrations. The note with it: both partners purified.

T1 sequence (Q96P20 whole entry): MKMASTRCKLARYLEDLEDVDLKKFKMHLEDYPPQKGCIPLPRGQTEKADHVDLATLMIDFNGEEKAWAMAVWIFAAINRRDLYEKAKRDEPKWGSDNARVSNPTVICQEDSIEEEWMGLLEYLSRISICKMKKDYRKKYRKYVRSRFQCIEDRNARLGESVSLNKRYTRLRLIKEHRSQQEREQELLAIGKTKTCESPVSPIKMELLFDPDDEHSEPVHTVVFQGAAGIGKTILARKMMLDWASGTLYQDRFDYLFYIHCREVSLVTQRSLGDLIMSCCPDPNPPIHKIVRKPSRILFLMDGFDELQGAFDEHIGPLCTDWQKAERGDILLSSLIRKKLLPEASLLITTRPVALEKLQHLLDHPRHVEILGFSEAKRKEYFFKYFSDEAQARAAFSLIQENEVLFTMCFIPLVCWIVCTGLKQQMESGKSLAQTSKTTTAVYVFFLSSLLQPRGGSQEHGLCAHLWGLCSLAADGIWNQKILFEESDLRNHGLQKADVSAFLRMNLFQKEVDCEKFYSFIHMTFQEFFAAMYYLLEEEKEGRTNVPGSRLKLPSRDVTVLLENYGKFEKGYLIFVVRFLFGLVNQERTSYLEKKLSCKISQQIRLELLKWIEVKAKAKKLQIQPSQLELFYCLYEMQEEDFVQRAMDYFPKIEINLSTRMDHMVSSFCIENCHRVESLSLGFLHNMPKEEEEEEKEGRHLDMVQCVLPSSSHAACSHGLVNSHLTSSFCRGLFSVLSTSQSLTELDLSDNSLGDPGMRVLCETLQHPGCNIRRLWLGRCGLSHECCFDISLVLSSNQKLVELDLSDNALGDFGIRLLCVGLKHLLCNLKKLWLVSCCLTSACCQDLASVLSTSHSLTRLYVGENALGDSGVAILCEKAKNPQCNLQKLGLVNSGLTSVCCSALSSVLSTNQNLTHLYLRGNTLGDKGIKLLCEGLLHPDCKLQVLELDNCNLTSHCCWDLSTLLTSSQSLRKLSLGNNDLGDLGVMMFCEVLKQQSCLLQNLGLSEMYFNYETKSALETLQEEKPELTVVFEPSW

B1: IKKβ used for microscale thermophoresis (enzyme, UniProt O14920 1-756, looked up)
chain: MSWSPSLTTQTCGAWEMKERLGTGGFGNVIRWHNQETGEQIAIKQCRQELSPRNRERWCLEIQIMRRLTHPNVVAARDVPEGMQNLAPNDLPLLAMEYCQGGDLRKYLNQFENCCGLREGAILTLLSDIASALRYLHENRIIHRDLKPENIVLQQGEQRLIHKIIDLGYAKELDQGSLCTSFVGTLQYLAPELLEQQKYTVTVDYWSFGTLAFECITGFRPFLPNWQPVQWHSKVRQKSEVDIVVSEDLNGTVKFSSSLPYPNNLNSVLAERLEKWLQLMLMWHPRQRGTDPTYGPNGCFKALDDILNLKLVHILNMVTGTIHTYPVTEDESLQSLKARIQQDTGIPEEDQELLQEAGLALIPDKPATQCISDGKLNEGHTLDMDLVFLFDNSKITYETQISPRPQPESVSCILQEPKRNLAFFQLRKVWGQVWHSIQTLKEDCNRLQQGQRAAMMNLLRNNSCLSKMKNSMASMSQQLKAKLDFFKTSIQIDLEKYSEQTEFGITSDKLLLAWREMEQAVELCGRENEVKLLVERMMALQTDIVDLQRSPMGRKQGGTLDDLEEQARELYRRLREKPRDQRTEGDSQEMVRLLLQAIQSFEKKVRVIYTQLSKTVVCKQKALELLPKVEEVVSLMNEDEKTVVRLQEKRQKELWNLLKIACSKVRGPVSGSPDSMNASRLSQPGQLMSQPSTASNSLPEPAKKSEELVAEAHNLCTLLENAIQDTVREQDQSFTALDWSWLQTEEEEHSCLEQAS
notes: IKKβ titrated in MST
The molecule B1 had a Kd of 1.43 ± 0.35 µM.
